In a protein production outcome set (Wang et al. 2014):

assay: label from the status in PepcDB records
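Further: failed if final PepcDB status was selected cloned or expressed and not failed if soluble or beyond.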

Sequence	protein production
SLLGQKSQRYKAEEGLQAQGEAPGLMDVQIPTAEEQKAASSSSTLIMGTLEEVTDSGSPSPPQSPEGASSSLTVTDSTLWSQSDEGSSSNEEEGPSTSPDPAHLESLFREALDEKVAELVRFLLRKYQIKEPVTKAEMLESVIKNYKNHFPDIFSKASECMQVIFGIDVKEVDPAGHSYILVTCLGLSYDGLLGDDQSTPKTGLLIIVLGMILMEGSRAPEEAIWEALSVMGLYDGREHSVYWKLRKLLTQEWVQENYLEYRQAPGSDPVRYEFLWGPRALAETSYVKVLEHVVRVNARVRISYPSLHEEALGEEKGV	not failed
SLLSVDMEMQIPFHDVDSMGITWHGNYLRYFEIARCKLLDELGYNYRQMQASNYAWPIIDLQIKYVKTSTFEQKITVRAELVEWENRLKINYQIRDVETGARITKGYTIQAAVDMCTQELCFVTPEVFRDKIATLFAKVE	failed
SLSLIRKKGFYKQDVNKTAWELPKTYVSPTHVGSGAYGSVCSAIDKRSGEKVAIKKLSRPFQSEIFAKRAYRELLLLKHMQHENVIGLLDVFTPASSLRNFYDFYLVMPFMQTDLQKIMGLKFSEEKIQYLVYQMLKGLKYIHSAGVVHRDLKPGNLAVNEDCELKILDFGLARHADAEMTGYVVTRWYRAPEVILSWMHYNQTVDIWSVGCIMAEMLTGKTLFKGKDYLDQLTQILKVTGVPGTEFVQKLNDKAAKSYIQSLPQTPRKDFTQLFPRASPQAADLLEKMLELDVDKRLTAAQALTHPFFEPFRDPEEETEAQQPFDDSLEHEKLTVDEWKQHIYKEIVNFSPI	not failed
SLSLRPSPRLLCTATKQKNSGQNLEEDMGQSEQKADPPATEKTLLEEKVKLEEQLKETVEKYKRALADTENLRQRSQKLVEEAKLYGIQAFCKDLLEVADVLEKATQCVPKEEIKDDNPHLKNLYEGLVMTEVQIQKVFTKHGLLKLNPVGAKFDPYEHEALFHTPVEGKEPGTVALVSKVGYKLHGRTLRPALVGVVKEA	not failed
SLTGEESDTLRKIVLEECLPNQQQNQNPSPCAEVKPNAGYVVLKDLNGPLQYLLMPTYRINGTESPLLTDPSTPNFFWLAWQARDFMSKKYGQPVPDRAVSLAINSRTGRTQNHFHIHISCIRPDVREQLDNNLANISSRWLPLPGGLRGHEYLARRVTESELVQRSPFMMLAEEVPEAREHMGSYGLAMVRQSDNSFVLLATQRNLLTLNRASAEEIQDHQCEILR	not failed
SLTMDVPPTIHVPLPPTSYPAFDAAIFTDIGGRKHQEDRFTLCPQLVPGRDDCAFFGVFDGTVGDFASENVKDLVVPQLISSPAWQEVTEMLRSDVPATEVDEKLPQLLDQAVDDMYKNADNELVKMCEQLNKDYASSTSVTAVLAKGFVAVGHLGDSRIAMGVETPNGLNCEFLTVDHKPDMPHEKLRIMRNGGSVEYLHNHNNKPFIRGGDFSFRKSRGEQPMQLQYSRAFGGKDLKMYGLSNQPDVRVVRVTPQHRVMILATDGLWDVMSAAQAVEIAMQARQEGRNPAQALVEMTLAEQQSRNQSADNITAMTVFFKKTD	not failed
SNDQYHRAARDGYLELLKEATRKELNAPDEDGMTPTLWAAYHGNLESLRLIVSRGGDPDKCDIWGNTPLHLAASNGHLHCLSFLVSFGANIWCLDNDYHTPLDMAAMKGHMECVRYLDSIAAKQSSLNPKLVGKLKDKAFREAERRIRECAKLQRRHHERMERRYRRELAERSDTLSFSSLTSSTLSRRLQHLALGSHLPYSQATLHGTARGKTKMQKKLERRKQGGEGTFKVSEDGRKSARSLSGLQLGSDVMFVRQGTYANPKEWGRAPLRDMFLSDEDSVSRATLAAEPAHSEVSTDSGHDSLFTRPGLGTMVFRRNYLSSGLHGLGREDGGLDGVGAPRGRLQSSPSLDDDSLGSANSLQDRSCGEELPWDELDLGLDEDLEPETSPLETFLASLHMEDFAALLRQEKIDLEALMLCSDLDLRSISVPLGPRKKILGAVRRRRQAMERPPALEDTEL	not failed
SNQEKLQRTMIHFNNPEVQAFLAVNTFTITGHGETKQLTEMLRSVLNQLAAVSLTSLRRLAEALPKQSVDGKAPLATGEDDDDDEVPGIMENFDEASKNEAN	failed
SNRLPDDYDPYAVEEPSDEEPALSSSEDEVDVLLHGTPDQKRKLIRECLTGESESSSEDEFEKEMEAELNSTMKTMEDKLSSLGTGSSSGNGKVATAPTRYYDDIYFDSDSEDEDRAVQVTKKKKKKQHKIPTNDELLYDPEKDNRDQAWVDAQRRGYHGLGPQRSREQQPVPNSDAVLNCPACMTTLCLDCQRHESYKTQYRAMFVMNCSINKEEVLRYKASENRKKRRVHKKMRSNQEDAAEKAETDVEEIYHPVMCTECSTEVAVYDKDEVFHFFNVLASHS	not failed
SPARPFTVRAPASSANLGPGFDSLGLSVPLYTTLRVTPQDKAEVVPLGTELADTPADESNYVYRAMTLAAKRAGRTLPPARVEIETEVPLARGLGSSAAALVAGVVAGNELLGRPLDDETVLDVTAREEGHPDNVAPALFGGIVVATLDKLGTHY	failed
SPINPYKDHMSVLKAYYAMNMEPNSDELLKISIAVGLPQEFVKEWFEQRKVYQYSNSR	not failed
SPKMDVHETDHEVILECDIPGLESKEDLQIDVEPRSVRIEGRIKRSKEVHDERFYRREREIGHFRRVVPLPAEVAEDDIRAAYRNGVLEVRMRKRLDDRRRTIDVEFH	failed
SQIYASDGETELARIVPPEGNRQMVTIDQVPDTVKNAVVAAEDREFYTNPGFSITGYARAALGVITGDSSAGGGSTITQQYVKKAVVGDERSLIRKAKELVYSAKMANEWSKDEVLEAYLNTVYFGRNAYGVQAAAHAFFDKPVEELTAAEGAVLAASIQLPSQLDPWTNP	failed
SREPVDILREQKINAEWALKQQSDKLAAQFDNMDDAYLRERKQDMLQVVRRIHNNLIGQGNELEVADNLFDETVLIANDLSPADTVLFKEQR	failed
SRFLVLGGAGSIGQAVTKEIFKRNPKKLHVVDISENNMVELVRDIRSSFGYIDGDFQTFALDIGSLEYDAFIKADGKFDYVLNLSALKHVRSEKDPYTLMRMIDVNVFNTDKTIQQSIDAGAKKYFCVSTDKAANPVNMMGASKRIMEMFLMRKSEQIAISTARFANVAFSDGSLLHGFNQRIQKRQPIVAPND	failed
SRIEERKAIIGLYNYAHEMTHGASDREYPRLGQMIVDYENPLKKMMEEFVPHSKSLSDALISLQMVYPRRNLSADQWRNAQLLSLISAPSTMLNPAQSDTMPCEYLSLDAMEKWIIFGFILCHGILNTDATALNLWKLALQSSSCLSLFRDEVFHIHKAAEDLFVNIRGYNKRINDIRECKEAAVSHAGSMHRERRKFLRSALKELATVLSDQPGLLGPKALFVFMALSFARDEIIWLLRHADNMPKKSADDFIDKHIAELIFYMEELRAHVRKYGPVMQRYYVQYLSGFDAVVLNELVQNLSVCPEDESIIMSSFVNTMTSLSVKQVEDGEVFDFRGMRLDWFRLQAYTSVSKASLGLADHRELGKMMNTIIFHTKMVDSLVEMLVETSDLSIFCFYSRAFEKMFQQCLELPSQSRYSIAFPLLCTHFMSCTHELCPEERHHIGDRSLSLCNMFLDEMAKQARNLITDICTEQCTLSDQLLPKHCAKTISQAVN	failed
SRLPKSPPYTAFLGNLPYDVTEESIKEFFRGLNISAVRLPREPSNPERLKGFGYAEFEDLDSLLSALSLNEESLGNKRIRVDVADQAQDKD	not failed
SRPATPPVTPPSREGHVADLDRFPQDLRVYAMKAGADRQLLPFTEQAAQDARWNRRFFAPWRMTRISVPVKDVAAPFGTDGRPRGYAENLLPWDVTRWGALASGAALDLYPSQAWKGIVVSNSALREVPTLRPMFTAPTRAGQGYPFDMFQRTAVWMGTPVFVGHATADRAWLYVETAFAAGWMPAADVARVDDAFMTRYESGSLAAILRDDTSLNGADGTHLATAHIGTVLPLSGASQVGRTVLVPVRAPEGHAVVVPVLLTSGEAAQKPVPLTPGNMAELGNRMMGQPYGWGGLYEDRDCSSTLRDLFTPFGLWLPRNSASQAKAGRYVDIAKLDADDKEARIVAEGVPFMTLLWLRGHITLYLGLHEGQAAMFHNMWGIRTHRGGVEGRYVLGRAVVTSTRPGLDVPGNDNADGLLGRMQGMSILPGGAQ	not failed
SSAHMSGLEIMDEDQLIKDVLDKFLNCHEQTYDEEFLNTFTHLSQDLLLLPGEVEQDVSTSIPSCIPFVAQPPTCEVKPKPSVKRMDKQTEEILGDEVQLFSLDEEFDYDNVMLTSKFSPAEIENIKELCKQQKRKDTSPDLEKSCD	failed
SSANEDQEMELEALRSIYEGDESFRELSPVSFQYRIGENGDPKAFLIEISWTETYPQTPPILSMNAFFNNTISSAVKQSILAKLQEAVEANLGTAMTYTLFEYAKDNKEQFMENHNPINSATSISNIISIETPNTAPSSKKKDKKEQLSKAQKRKLADKTDHKGELPRGWNWVDVVKHLSKTGSKDDE	failed
SSEAKKGHVLFFPYPLQGHINPMIQLAKRLSKKGITSTLIIASKDHREPYTSDDYSITVHTIHDGFFPHEHPHAKFVDLDRFHNSTSRSLTDFISSAKLSDNPPKALIYDPFMPFALDIAKDLDLYVVAYFTQPWLASLVYYHINEGTYDVPVDRHENPTLASFPGFPLLSQDDLPSFACEKGSYPLLHEFVVRQFSNLLQADCILCNTFDQLEPKVVKWMNDQWPVKNIGPVVPSKFLDNRLPEDKDYELENSKTEPDESVLKWLGNRPAKSVVYVAFGTLVALSEKQMKEIAMAISQTGYHFLWSVRESERSKLPSGFIEEAEEKDSGLVAKWVPQLEVLAHESIGCFVSHCGWNSTLEALCLGVPMVGVPQWTDQPTNAKFIEDVWKIGVRVRTDGEGLSSKEEIARCIVEVMEGERGKEIRKNVEKLKVLAREAISEGGSSDKKIDEFVALLT	failed
SSGVIAFDEGFRVTTVNQGAQTILQADLRSVIGRPLETVDGMLEFAQVVRQAFAAHAAVGSERLHWQQQFEITPGLDETGGQPVTLLARGTHLRVD	failed
SSISQQTIAETDGDSAGSDSFPVGRTHHRWYLCHFGQSLIHVIQVVIGYFIMLAVMSYNTWIFLGVVLGSAVGYYLAYPLLSTA	failed
SSKELLMKLRRKTGYSFVNCKKALETCGGDLKQAEIWLHKEAQKEGWSKAA	not failed
SSSSCTVTTGTLGFGDKFKRPIGSWECSVCCVSNNAEDNKCVSCMSEKPG	not failed
STGESSSVSERGSLKQQLREYIRWEEAARNLLGLIEAKENRNHQPPQPKALGNQQPSWDSEDSSNFKD	failed
STGNGWFAGFPIFSWYFGRDGLWMGLAANTVGMSHLTREHMRTLLIYSKDGRIPHEIGLSNDGMQSYSISDRIFNTMYMSIDSSLLWLLSNKSLENWESKGFEHDNVTRVFKFASSCDSDGDGLLENNFSDGLIGWPETWANIRNGKAVDINALWVKTVELYSNELNIANAEELKKKYLESFFSNVSFTDFIDNSGYAKSVKSAMQFVPGIFFTNNNIVETIKQLAEGNLTPWGVRSVSVDDPMFDGGYHTGTVWPLMTGWFVLSAYKNGLKDIAFKQLMTFSELAFSSPDLGRINETYDSMIANPTGQFAQGWSSSMLVLSVMQGLLGIDSIEF	failed
STIIYIKDLNGRYTLVNNKYCEVLGIERRKIIGAMDFELFQPPLAELYQQNDQRANNSHDALHFEEPIPTPRGEIIYHMTKFDIRDDE	failed
STTEEESLSAAEEGYNVQRDYWRQAEESDGFDIENIKLPPGMHGRVMGLITYNCQLCYRYPFPVLVKLYAKFGLHRYNLIKGTSFELAALMKFNMLQNYMSSFYMTLLAHDPDPAASSSQKTFQVRVDEQQFGTLGINCSIARPKHEGDLLEVSTKTPFIPHFHGGALGDGIFKGELPDCLSDDALNALMEAVSKDELPEHVLDDALYARAGGIFQGELPDWPSDDALNDGKRFYMLKESEWQATDWISMYLELVITTTDRSITEPEVLSKLEIVKVAIETATKDEEPSNERLKAYRAHFYITFKGLAEPRAPRQVFEIGEHVERQAIVRRVMGHRGDLTLKGKLCGGQYIKRRSLALKSGEESPNCKKQTRVG	failed
